For the test, the target named is T1, Soluble CTLA-4-Ig (human, UniProt P16410 36-161, FITC-conjugated in the two-colour FACS assays; unlabelled and detected with FITC goat anti-human IgG in the concentration-dependent assay).
T1 construct: extracellular domain; Bought from R&D Systems; also called sCTLA-4-Ig; CTLA-4-Ig Fc; not shown: Fc portion of human IgG1
Briefly: two-colour FACS profile on transfected cells; score of preference for CTLA-4-Ig over CD28-Ig vs WT hB7-1.

T1 sequence (P16410 36-161): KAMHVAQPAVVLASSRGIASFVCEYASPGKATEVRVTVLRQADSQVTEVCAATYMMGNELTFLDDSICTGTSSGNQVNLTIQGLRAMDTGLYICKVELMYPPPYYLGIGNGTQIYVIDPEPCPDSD

B1: Round 2 CTLA4 A-B11-5 (ligand)
chain: ITPKSATKRVKETVMLSCDYSTSTEELTSLRIYWQKDSKMVLAILPGKVQVWPEYKNRTITDMNDNPRIVILALRLSDSGTYTCVIQKPDLKGAYKLEHLTSVRLMIRADFPVPTINDLGNPSPNIRRLICSTSGGFPRPHLYWLENGEELNATNTTLSQDPETKLYMISSELDFNMTSNHSFLCLVKYGDLTVSQTFYWQESKPTPSANQHLTWTIIIPVSAFGISVIIAVILTCLTCRNAAIRRQRRENEVEMQSCSQSP
As for B1, the “Binding Score” value turned out to be 1.

B2: Round 2 CTLA4 A-F6-9 (ligand)
chain: ITPKSVTKRVKETVMLSCDYSTSTEELTSLRIYWQKDSKMVLAILPGKVQVWPEYKNRTITDMNDNPRIVILALRLSDSGTYTCVIQKPDLKGAYKLEHLTSVRLMIRADFPVPTINDLGNPSPNIRRLICSTSGGFPRPHLYWLENGEELNATNTTLSQDPETKLYMISSELDFNMTSNHSFLCLVKYGDLTVSQTFYWQESKPTPSANQHLTWTIIIPVSAFGISVIIAVILTCLTCRNAAIRRQRRENEVEMQSCSQSP
Consider B2, for which the “Binding Score” value amounted to 1.

B3: Round 2 CTLA4 A-G8-1 (ligand)
chain: ITPKSVTKRVKETVMLSCDYNTSTEELTSLRIYWQKDSKMVLAILPGKVQVWPEYKNRTITDMNDNPRIVILALPLSDSGTYTCVIQKPDLKGAYKLEHLTSVRLMIRADFPVPTINDLGNPSPNIRRLICSTSGGFPRPHLYWLENGEELNATNTTLSQDPETKLYMISSELDFNMTSNHSFLCLVKYGDLTVSQTFYWQESKPTPSANQHLTWTIIIPVSAFGISVIIAVILTCLTCRNAAIRRQRRENEVEMQSCSQSP
With B3, the “Binding Score” value stood at 1.

B4: Round 1 CTLA4BP-5 (ligand)
chain: VIHVTKEVKEVATLSCGHNVSVEELAQTRIHWQKEKKMVLTMMSGDMNIWPEYKNRTIFDITNNLSIVILALRPSDEGTYECVVLKYEKDAFKREHLAEVTLSVKADFPTPSISDFEIPPSNIRRIICSTSGGFPEPHLSWLENGEELNAINTTVSQDPGTELYTVSSKLDFNMTTNHSFMCLIKYGHLRVNQTFNWNTPKQEHFPDNLLPSWAITLISVNGIFVICCLTYCFAPRCRERRRNERLRRESVRPV
notes: also called R1-5; R1 CTLA-4BP-5
In the case of B4, the “Binding Score” value amounted to 2.

B5: Round 1 CTLA4BP-27 (ligand)
chain: VIHVTKEVKEVATLSCGLNVSVEELAQTRIYWQKEKKMVLTMMSGDMNIWPEYKNRTIFDITNNLSIVILALRPSDEGTYECVVLKYEKDAFKREHLAEVMLSVKADFPTPSISDFEIPPSNIRRIICSTSGGFPEPHLSWLENGEELNAINTTVSQDPETELYTVSSKLDFNMTANHSFVCLIKYGHLRVNQTFNWNTPKQEHFPDNLLPSWAITLISVNGIFVICCLTYCFAPRCRERRRNETLRRESVRPV
notes: also called R1-27; R1 CTLA-4BP-27
Regarding B5, the “Binding Score” value was found to be 1.

B6: Round 1 CTLA4BP-11 (ligand)
chain: VIHMTKEVKEVATLSCGHNVSVEELAQTRIYWQKEKKMVLTMMSGDMNIWPEYKNRTIFDITNNLSIVILALRPSDEGTYECVVLKYEKDAFKREHLAEVMLSVKADFPTPSITDFEIPPSNIRRIICSTSGGFPEPHLFWLENGEELNAINTTVSQDPETELYAVSSKLDFNMTTNHSFMCLIKYGHLRVNQTFNWNTTKQEHFPDNLLPSWAITLISVNGIFVICCLTHCFAPRCRERRRNERLRRESVHPV
notes: also called R1-11; R1 CTLA-4BP-11
For the molecule B6, the “Binding Score” value was found to be 1.

B7: Round 1 CTLA4BP-13 (ligand)
chain: VIHVTKEVKEVATLSCGHNVSVEELAQTRIYWQKEKKMVLTMMSGDMNIWPEYKNRTIFDITNNLSIVILALRPSDEGTYECVVLKYEKDAFKREHLAEVTLSVKADFPTPSISDFEIPTSNIRRIICSTSGGFPEPHLFGLENGEEINAINTTASQDPETELYTVSSKLDFNMTPNRSFVCLIKYGHLRVNQTFNWNTPKQEHFPDNLLPSWAITLISANGIFVICCLTYCFAPRCRERKSNERLRRESVRPV
notes: also called R1-13; R1 CTLA-4BP-13
As for B7, the “Binding Score” value was 1.
